We go through one substance from patent publication US20220112250A1.

This test deals with Rat CaV2.2 channel (α1B splice variant e37a, α2δ1 and β3) expressed in HEK293T cells (rat) (UniProt Q02294). Kind of test: cell-based or functional assay.
UniProt Q02294, sequence (Q02294 other isoform, or with tags, fused parts or gaps mutant, chain 1 of 3): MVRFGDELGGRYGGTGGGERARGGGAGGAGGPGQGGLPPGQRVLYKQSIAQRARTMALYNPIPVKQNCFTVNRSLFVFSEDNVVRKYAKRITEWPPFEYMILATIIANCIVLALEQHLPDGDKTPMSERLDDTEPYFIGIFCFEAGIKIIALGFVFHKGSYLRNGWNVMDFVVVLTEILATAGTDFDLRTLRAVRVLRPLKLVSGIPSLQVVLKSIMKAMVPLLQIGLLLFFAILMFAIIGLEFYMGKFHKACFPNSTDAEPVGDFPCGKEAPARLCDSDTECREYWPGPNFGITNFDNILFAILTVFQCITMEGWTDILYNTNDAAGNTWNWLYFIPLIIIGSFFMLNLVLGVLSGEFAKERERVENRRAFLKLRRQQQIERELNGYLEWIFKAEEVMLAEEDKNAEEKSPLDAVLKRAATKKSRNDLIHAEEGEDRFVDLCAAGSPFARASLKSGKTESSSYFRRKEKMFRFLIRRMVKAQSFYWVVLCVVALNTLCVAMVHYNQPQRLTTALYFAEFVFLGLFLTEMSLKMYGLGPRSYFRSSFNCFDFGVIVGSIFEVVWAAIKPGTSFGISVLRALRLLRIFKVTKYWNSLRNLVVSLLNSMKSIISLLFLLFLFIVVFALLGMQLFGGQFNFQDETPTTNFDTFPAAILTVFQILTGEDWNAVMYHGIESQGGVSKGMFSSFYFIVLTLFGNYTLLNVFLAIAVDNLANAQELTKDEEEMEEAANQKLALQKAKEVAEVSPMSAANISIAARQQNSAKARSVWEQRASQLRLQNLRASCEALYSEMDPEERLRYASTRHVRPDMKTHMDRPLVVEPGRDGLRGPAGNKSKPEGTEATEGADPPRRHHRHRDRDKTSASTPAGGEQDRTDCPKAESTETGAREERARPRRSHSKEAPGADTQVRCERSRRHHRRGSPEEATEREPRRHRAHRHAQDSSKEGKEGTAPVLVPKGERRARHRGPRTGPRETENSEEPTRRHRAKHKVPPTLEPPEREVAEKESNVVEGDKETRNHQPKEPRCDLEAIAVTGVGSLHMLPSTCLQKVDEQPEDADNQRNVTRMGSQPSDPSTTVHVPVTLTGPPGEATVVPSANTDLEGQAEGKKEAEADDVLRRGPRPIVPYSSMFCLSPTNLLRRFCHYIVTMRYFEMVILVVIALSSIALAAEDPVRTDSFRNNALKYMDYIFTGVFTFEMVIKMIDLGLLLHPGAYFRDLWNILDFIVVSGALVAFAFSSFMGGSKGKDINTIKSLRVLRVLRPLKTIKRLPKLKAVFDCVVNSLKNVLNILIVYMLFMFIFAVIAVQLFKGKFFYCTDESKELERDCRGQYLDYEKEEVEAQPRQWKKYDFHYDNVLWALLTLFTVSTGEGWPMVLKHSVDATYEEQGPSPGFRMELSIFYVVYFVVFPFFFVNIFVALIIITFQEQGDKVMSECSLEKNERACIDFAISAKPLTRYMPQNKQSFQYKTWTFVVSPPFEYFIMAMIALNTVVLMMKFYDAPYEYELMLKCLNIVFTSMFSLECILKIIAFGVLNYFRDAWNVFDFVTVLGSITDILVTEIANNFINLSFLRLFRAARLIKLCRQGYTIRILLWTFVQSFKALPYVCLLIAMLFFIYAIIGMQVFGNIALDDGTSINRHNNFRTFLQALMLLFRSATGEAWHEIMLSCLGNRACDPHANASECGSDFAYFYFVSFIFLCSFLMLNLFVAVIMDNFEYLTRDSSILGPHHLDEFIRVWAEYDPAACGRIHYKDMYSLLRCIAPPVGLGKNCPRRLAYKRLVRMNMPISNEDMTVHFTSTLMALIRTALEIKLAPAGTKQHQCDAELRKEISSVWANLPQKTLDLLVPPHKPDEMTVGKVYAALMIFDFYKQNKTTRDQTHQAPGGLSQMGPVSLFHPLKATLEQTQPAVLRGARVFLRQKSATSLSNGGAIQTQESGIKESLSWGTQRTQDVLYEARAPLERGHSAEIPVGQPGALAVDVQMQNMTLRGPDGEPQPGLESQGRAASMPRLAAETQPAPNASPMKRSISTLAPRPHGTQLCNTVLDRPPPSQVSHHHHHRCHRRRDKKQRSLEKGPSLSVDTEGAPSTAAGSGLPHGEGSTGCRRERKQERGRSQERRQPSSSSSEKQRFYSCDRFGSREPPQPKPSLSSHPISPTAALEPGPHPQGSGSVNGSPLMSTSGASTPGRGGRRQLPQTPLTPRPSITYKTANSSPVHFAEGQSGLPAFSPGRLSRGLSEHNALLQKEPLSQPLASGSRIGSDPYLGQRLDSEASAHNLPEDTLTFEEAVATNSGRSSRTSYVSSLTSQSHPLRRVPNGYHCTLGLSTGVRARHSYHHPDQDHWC
UniProt Q02294, sequence (P54290 25-1091, stated change not applied, chain 2 of 3, further chain): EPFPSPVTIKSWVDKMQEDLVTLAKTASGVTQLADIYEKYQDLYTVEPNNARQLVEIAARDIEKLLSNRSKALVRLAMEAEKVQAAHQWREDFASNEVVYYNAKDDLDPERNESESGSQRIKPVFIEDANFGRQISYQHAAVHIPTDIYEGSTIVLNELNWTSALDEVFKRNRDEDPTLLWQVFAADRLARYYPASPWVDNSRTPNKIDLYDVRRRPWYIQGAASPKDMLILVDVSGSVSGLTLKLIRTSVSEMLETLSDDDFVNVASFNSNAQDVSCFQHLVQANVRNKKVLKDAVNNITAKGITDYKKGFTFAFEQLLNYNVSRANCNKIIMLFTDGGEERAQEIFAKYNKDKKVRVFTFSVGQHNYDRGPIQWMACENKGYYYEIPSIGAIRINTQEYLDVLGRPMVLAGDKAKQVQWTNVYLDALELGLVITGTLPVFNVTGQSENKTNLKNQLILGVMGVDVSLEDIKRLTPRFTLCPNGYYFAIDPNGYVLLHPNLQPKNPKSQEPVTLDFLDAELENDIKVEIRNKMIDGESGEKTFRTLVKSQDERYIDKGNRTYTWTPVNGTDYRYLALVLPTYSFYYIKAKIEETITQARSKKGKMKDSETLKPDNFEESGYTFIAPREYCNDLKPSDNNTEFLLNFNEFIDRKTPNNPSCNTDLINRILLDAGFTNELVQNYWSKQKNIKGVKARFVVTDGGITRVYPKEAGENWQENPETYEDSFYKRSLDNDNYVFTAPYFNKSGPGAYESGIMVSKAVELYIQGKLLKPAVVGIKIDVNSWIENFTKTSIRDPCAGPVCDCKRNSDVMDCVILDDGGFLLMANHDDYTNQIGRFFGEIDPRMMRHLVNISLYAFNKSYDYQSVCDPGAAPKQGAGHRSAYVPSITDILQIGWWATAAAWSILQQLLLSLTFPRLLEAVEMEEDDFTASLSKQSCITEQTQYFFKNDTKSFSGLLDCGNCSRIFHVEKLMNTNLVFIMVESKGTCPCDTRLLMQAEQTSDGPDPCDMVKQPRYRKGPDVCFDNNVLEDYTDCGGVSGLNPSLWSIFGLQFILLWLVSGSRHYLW
UniProt Q02294, sequence (P54287 whole entry, stated change not applied, chain 3 of 3, further chain, canonical isoform): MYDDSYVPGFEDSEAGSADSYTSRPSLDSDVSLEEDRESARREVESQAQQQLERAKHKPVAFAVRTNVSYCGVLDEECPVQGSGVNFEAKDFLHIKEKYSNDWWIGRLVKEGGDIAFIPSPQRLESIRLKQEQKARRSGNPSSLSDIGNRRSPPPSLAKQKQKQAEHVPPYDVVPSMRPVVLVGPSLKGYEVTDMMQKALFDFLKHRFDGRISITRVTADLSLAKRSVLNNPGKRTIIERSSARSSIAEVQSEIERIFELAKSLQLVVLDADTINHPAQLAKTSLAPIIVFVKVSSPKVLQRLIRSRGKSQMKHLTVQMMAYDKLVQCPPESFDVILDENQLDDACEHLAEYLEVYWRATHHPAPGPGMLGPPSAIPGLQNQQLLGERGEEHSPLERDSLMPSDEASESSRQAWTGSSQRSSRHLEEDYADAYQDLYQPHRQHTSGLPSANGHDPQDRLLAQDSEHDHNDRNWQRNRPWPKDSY

MVIIA (ziconotide) (peptide) showed a half inhibitory concentration of CaV2.2 channel current of 0.0436 µM.
